How the values were obtained:
meHER2(Hc-Lc):28ζ CAR [1] = assay: flow cytometry, meditope-AF647 staining of lentivirally transduced primary human T cells; untransduced control 1.83%
meHER2(Lc-Hc):28ζ CAR [2] = assay: as above
meHER2(Hc-Lc):28ζ CAR [3] = assay: flow cytometry, T cells pre-bound to meditope peptide, then protein L; untransduced control 0.50%
meHER2(Lc-Hc):28ζ CAR [4] = assay: as above
[5] = biological target: Fab (meditope-binding Fab, not further named); assay: method not stated
meHER2(Hc-Lc):28ζ CAR [6] = assay: flow cytometry, T cells pre-bound to meditope peptide, then protein L; untransduced control 7.23%
meHER2(Lc-Hc):28ζ CAR [7] = assay: as above
meHER2(Hc-Lc):28ζ CAR [8] = assay: flow cytometry, protein L staining of lentivirally transduced primary human T cells; untransduced control 13.16%
meHER2(Hc-Lc):28ζ CAR [9] = assay: flow cytometry, T cells pre-bound to meditope peptide, then protein L; untransduced control 0.63%
meHER2(Lc-Hc):28ζ CAR [10] = assay: as above

Chain of meHER2(Hc-Lc):28ζ CAR (heavy, as listed by the source limits assumed, chain 1 of 2): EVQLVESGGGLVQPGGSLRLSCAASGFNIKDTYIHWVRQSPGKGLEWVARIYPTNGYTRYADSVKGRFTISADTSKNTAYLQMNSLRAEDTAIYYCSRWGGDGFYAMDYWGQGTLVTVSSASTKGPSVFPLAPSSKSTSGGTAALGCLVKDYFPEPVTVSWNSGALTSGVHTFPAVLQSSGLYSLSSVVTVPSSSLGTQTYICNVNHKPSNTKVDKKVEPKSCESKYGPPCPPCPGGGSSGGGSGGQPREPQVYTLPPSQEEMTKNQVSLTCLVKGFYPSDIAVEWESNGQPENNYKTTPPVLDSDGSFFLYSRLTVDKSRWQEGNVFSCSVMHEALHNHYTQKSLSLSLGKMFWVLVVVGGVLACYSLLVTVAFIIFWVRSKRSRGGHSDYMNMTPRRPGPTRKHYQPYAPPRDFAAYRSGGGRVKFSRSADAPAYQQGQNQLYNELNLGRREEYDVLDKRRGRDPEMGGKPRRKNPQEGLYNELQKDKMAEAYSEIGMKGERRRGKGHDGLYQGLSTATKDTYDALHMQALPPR
Chain of meHER2(Hc-Lc):28ζ CAR (light, as listed by the source limits assumed, chain 2 of 2): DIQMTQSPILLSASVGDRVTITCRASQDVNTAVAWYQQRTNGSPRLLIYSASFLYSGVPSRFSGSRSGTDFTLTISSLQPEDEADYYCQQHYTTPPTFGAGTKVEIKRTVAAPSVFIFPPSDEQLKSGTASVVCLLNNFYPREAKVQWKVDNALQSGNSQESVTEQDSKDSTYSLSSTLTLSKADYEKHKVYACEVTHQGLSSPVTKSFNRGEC
Chain of meHER2(Lc-Hc):28ζ CAR (heavy, as listed by the source limits assumed, chain 1 of 2): as the sequence (heavy, as listed by the source limits assumed, chain 1 of 2) above
Chain of meHER2(Lc-Hc):28ζ CAR (light, as listed by the source limits assumed, chain 2 of 2): as the sequence (light, as listed by the source limits assumed, chain 2 of 2) above

Question: Which % of cells in the positive gate (meHER2(Hc-Lc):28ζ CAR [1]) does the source give for meditope-AF647 (peptide) here?
Answer: Its % of cells in the positive gate is 54.4%.

Question: And the % of cells in the positive gate (meHER2(Lc-Hc):28ζ CAR [2])?
Answer: Its % of cells in the positive gate is 57.1%.

Question: And the % of cells Meditope+ Protein L- (upper left quadrant) (meHER2(Hc-Lc):28ζ CAR [3])?
Answer: Its % of cells Meditope+ Protein L- (upper left quadrant) is 2.6%.

Question: And the % of cells Meditope+ Protein L- (upper left quadrant) (meHER2(Lc-Hc):28ζ CAR [4])?
Answer: The % of cells Meditope+ Protein L- (upper left quadrant) was 2.09%.

Question: How did the estimated half-life of the complex [5] turn out when meditope-protein L fusion (MPL) was run?
Answer: The estimated half-life of the complex was over 80 days.

Question: For protein L, which % of cells Meditope- Protein L+ (lower right quadrant) (meHER2(Hc-Lc):28ζ CAR [6]) is on record?
Answer: Its % of cells Meditope- Protein L+ (lower right quadrant) is 4.04%.

Question: What about the % of cells Meditope- Protein L+ (lower right quadrant) (meHER2(Lc-Hc):28ζ CAR [7]) of the same substance?
Answer: Its % of cells Meditope- Protein L+ (lower right quadrant) is 16.1%.

Question: And the % of cells in the positive gate (meHER2(Hc-Lc):28ζ CAR [8])?
Answer: Its % of cells in the positive gate is 51.8%.

Question: And the % of cells Meditope+ Protein L+ (upper right quadrant) (meHER2(Hc-Lc):28ζ CAR [9])?
Answer: Its % of cells Meditope+ Protein L+ (upper right quadrant) is 42.1%.

Question: What about the % of cells Meditope+ Protein L+ (upper right quadrant) (meHER2(Lc-Hc):28ζ CAR [10]) of the same substance?
Answer: Its % of cells Meditope+ Protein L+ (upper right quadrant) is 43.1%.
